The results in this text go back to US20240034792A1 (HARBOUR BIOMED SHANGHAI, published 2024).

To fix the notation:
B1: PR000673 (antibody, human IgG4 S228P, kappa, V domains shown)
VH: QVQLVESGGGVVQPGRSLRLSCAASGFIFSNYGMHWVRQAPGKGLEWVAVIWYDGSKKYYGDSVKGRFTISRDNSKNTLYLQMNSLRDEDTAVYFCARNDDYWGQGTLVTVSS
VL: EIVLTQSPATLSFSPGERATLSCRASQSVSSDLAWYQQKPGQAPSLLIYDASNRATGIPARFSGSGSGTDFTLTISSLEPEDFAVYYCHQRNNWPLTFGGGTKVEIKR
notes: Fully human recombinant H2L2 antibody, human IgG4, kappa light chain; also called 4004_10H9A12
B2: PR000676 (antibody, human IgG4 S228P, kappa, V domains shown)
VH: QIQLVESGGGVVQPGRSLRLSCAASGFTLSSYGMHWVRQAPGKGLEWVAVILSDGSNKYYADSVKGRFTISRDNSKNTLYLQMNSLRAEDTAVYYCADLGGDVWGQGTTVTVSS
VL: B1 VL with F13L, D32Y, S45R, N53T, H89Q, N92S
notes: Fully human recombinant H2L2 antibody, human IgG4, kappa light chain; also called 4004_1A7A1
B3: PR000675 (antibody, human IgG4 S228P, kappa, V domains shown)
VH: EVQLLESGGGLVQPGGSLRLSCVDSGFTFSSYAMTWVRQAPGKGLEWVSGISGSGYSTYYADSVKGRFTISRDNSKKTLYLQMNSLRAEDTAVYYCAELSLDYWGQGTLVTVSS
VL: B1 VL with F13L, S31R, D32Y, S45R, I48M, Y49H, S52A, I58L, S63N, H89Q
notes: Fully human recombinant H2L2 antibody, human IgG4, kappa light chain; also called 4004_19G8F2
B4: PR000674 (antibody, human IgG4 S228P, kappa, V domains shown)
VH: QVQLVESGGGVVQPGKSLRLSCTVSGLTFSDNGMHWVRQAPGRGLEWMSVIWYDGSKKYYADSVKGRFTISRDNSKNTLYLQMNNMRVEDTAVYYCATNSDYWGQGTLVTVSS
VL: EIVLTQSPATLSLSPGERATLSCRASQSVSSYLAWYQQKPGQAPRLLIYDTSKRATGIPARFSGSGSGTDFTLTISSLEPEDFAVYYCQQHNNWIFTFGPGTKVDIKR
notes: Fully human recombinant H2L2 antibody, human IgG4, kappa light chain; also called 4004_12H9C1
B5: PR000679 (antibody, human IgG4 S228P, kappa, V domains shown)
VH: QVQLVQSGTEVKKPGSSVKVSCKASGGTFSSYAISWVRQAPGQGLEWMGGIIPIFDTVSSAQKFQGRVTITADKSTSTAYMELFSLRSEDTAVYYCARSPPYSSNWYQYFQHWGQGTLVTVSS
VL: DIQMTQSPSTLSASVGDRVTITCRASQTISIWLAWYQQKPGKAPKLLIYKASSLESGVPSRFSGSGSGTEFTLTISSLQPDDFATYYCQQFNSYWTFGQGTKVEIKR
notes: Fully human recombinant H2L2 antibody, human IgG4, kappa light chain; also called 4004_6C11C6
B6: PR000677 (antibody, human IgG4 S228P, kappa, V domains shown)
VH: QVQLQQSGPGLVKPSQTLSLTCAISGDSVSSNSAAWNWIRQSPSRGLEWLGRTYYRSKWYSDYGISVNSRITVNPDTSKNLFSLQLNPVTPEDTAVYYCTRETHYYGSGSYLDYWSQGTLVTVSS
VL: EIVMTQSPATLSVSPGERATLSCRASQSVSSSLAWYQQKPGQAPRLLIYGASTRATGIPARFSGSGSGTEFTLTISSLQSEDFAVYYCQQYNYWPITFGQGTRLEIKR
notes: Fully human recombinant H2L2 antibody, human IgG4, kappa light chain; also called 4004_33B9E4
B7: PR005581 (antibody, human IgG1, V domains shown)
VH: EVQLVETGGGLIQPGGSLRLSCAASGFNVSSFYMSWVRQAPGKGREWVSIIDKAGSTYYGASVKGRFTISRDNSKNRLYLQMNSLRAEDTAMYYCARATEVREKQGYNYPFNYWGQGTLVTVSS
notes: no light chain; also called anti-PD1 PR002481R2M1_A1 HCAb hIgG1
B8: PR005582 (antibody, human IgG1, V domains shown)
VH: B7 VH with S30A
notes: no light chain; also called anti-PD1 PR002481Com_28 HCAb hIgG1
B9: PR005584 (antibody, human IgG1, V domains shown)
VH: B7 VH with G60A, A61D
notes: no light chain; also called anti-PD1 PR002481Com_30 HCAb hIgG1

Substitutions are numbered along the chain they refer to.

T1 sequence (B0LAJ3 entry or part of it limits assumed): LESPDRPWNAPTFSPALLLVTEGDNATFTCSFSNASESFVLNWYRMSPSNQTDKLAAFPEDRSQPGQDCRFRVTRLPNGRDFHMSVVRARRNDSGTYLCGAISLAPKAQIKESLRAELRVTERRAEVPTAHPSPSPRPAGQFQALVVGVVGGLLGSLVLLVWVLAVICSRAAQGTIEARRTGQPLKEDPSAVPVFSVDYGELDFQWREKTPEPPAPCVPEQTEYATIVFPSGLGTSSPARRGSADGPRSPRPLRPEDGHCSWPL

The first assay has as its target T1, Cynomolgus monkey PD-1 expressed on CHO-K1 cells (CHO-K1/cyno PD-1) (cynomolgus monkey, UniProt B0LAJ3 25-288).
T1 construct: also called CHO-K1 cells overexpressing cynomolgus monkey PD-1
As to the kind of experiment: FACS, CHO-K1/cyno PD-1 cells. As for the experimental part: (§1) In order to investigate the in vitro binding activity of the PD-1 antigen-binding proteins to human/cynomolgus monkey PD-1, the binding assay at the cellular level was performed using a CHO-K1 cell strain overexpressing human or cynomolgus monkey PD-1 (CHO-K1/hPD-1 or CHO-K1/cyno PD-1, from GenScript). Briefly, the CHO-K1-hPD-1 cells were digested and resuspended in an F-12K complete medium, and the cell density was adjusted to 1×10⁶ cells/mL. The cells were seeded in a 96-well V-bottom plate (Corning, Cat#3894) at 100 μL/well, followed by the addition of the test antigen-binding proteins with concentrations 2-fold of final concentrations obtained by 5-fold gradient dilution were each added at 100 μL/well. The mixtures were well mixed. The maximum final concentration of the antigen-binding proteins was 100 nM or 300 nM. A total of 8-11 concentrations were set. hIgG was used as a control. The cells were incubated at 4° C. for 1 h away from light. Thereafter, the cells in each well were rinsed twice with 100 μL of pre-cooled PBS, and centrifuged at 500 g at 4° C. for 5 min, and then the supernatant was discarded. Then 100 μL of a fluorescent secondary antibody (goat anti-human IgG (H+L) secondary antibody, Alexa Fluor® 488 conjugate, Invitrogen, Cat #A11013, 1:1000) was added to each well. The plate was incubated away from light at 4° C. for 30 min. The cells in each well were rinsed twice with 200 μL of pre-cooled PBS, and centrifuged at 500 g at 4° C. for 5 min, and then the supernatant was discarded. Finally, the cells in each well were resuspended in 200 μL of pre-cooled PBS, and the fluorescence signal values were read using a BD FACS CANTOII.
By EC50 is commonly meant the midpoint of the concentration-response curve. As for B1, the midpoint of the response, the EC50, lay at 2.04 nM and the “MFI Maximum” value was 38200.

Turning to B2, the EC50 worked out at 8.34 nM and the “MFI Maximum” value amounted to 39000.

Take B3: the EC50 worked out at 6.91 nM and the “MFI Maximum” value was 36800.

Turning to B4, the EC50 was found to be 2.35 nM and the “MFI Maximum” value was 41200.

In the case of B5, the concentration giving a half-maximal response (EC50) was 1.58 nM and the “MFI Maximum” value turned out to be 24800.

As to B6, it took 2.86 nM to reach a half-maximal effect (EC50) and the “MFI Maximum” value came out at 34500.

The target of the next assay is T2, Human PD-1 expressed on CHO-K1 cells (CHO-K1/hPD-1) (human, UniProt Q15116 25-288).
T2 construct: whole, on cells; also called CHO-K1 cells overexpressing human PD-1
T2 sequence (Q15116 25-288): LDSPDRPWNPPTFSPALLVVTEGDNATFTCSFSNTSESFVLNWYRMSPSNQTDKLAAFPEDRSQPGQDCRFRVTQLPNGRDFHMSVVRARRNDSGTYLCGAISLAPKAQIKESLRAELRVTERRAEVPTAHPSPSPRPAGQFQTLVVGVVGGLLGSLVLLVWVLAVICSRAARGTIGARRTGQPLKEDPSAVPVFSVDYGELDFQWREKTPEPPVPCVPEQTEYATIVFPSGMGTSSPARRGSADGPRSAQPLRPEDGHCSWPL
In words: FACS blocking of biotin-labeled human PD-L2 binding to CHO-K1-hPD-1 cells. The method, then:
(§2) Briefly, the CHO-K1-hPD-1 cells were digested and resuspended in an F-12K complete medium, and the cell density was adjusted to 1×10⁶ cells/mL. The cells were seeded in a 96-well V-bottom plate (Corning, Cat#3894) at 100 μL/well, followed by the addition of the test antigen-binding proteins with concentrations 2-fold of final concentrations obtained by 3-fold or 5-fold gradient dilution were each added at 100 μL/well. The mixtures were well mixed. The maximum final concentration of the antigen-binding proteins was 100 nM or 300 nM. A total of 8 concentrations were set. hIgG was used as a control. The cells were incubated at 4° C. for 1 h away from light. […] The cells were incubated at 4° C. away from light for 30 min. The cells in each well were rinsed twice with 100 μL of pre-cooled PBS, and centrifuged at 500 g at 4° C. for 5 min, and then the supernatant was discarded. A fluorescent secondary antibody (PE Streptavidin, BD, Cat# 554061, 1:200) was added at 100 μL/well, and the cells were incubated at 4° C. away from light for 30 min. The cells in each well were rinsed twice with 200 μL of pre-cooled PBS, and centrifuged at 500 g at 4° C. for 5 min, and then the supernatant was discarded. Finally, the cells in each well were resuspended in 200 μL of pre-cooled PBS, the fluorescence signal values were read using a BD FACS CANTOII, and the IC₅₀ values were calculated.
Broadly, the IC50 is the midpoint of a concentration-inhibition curve. B1: the IC50 came to 1.55 nM and the “Maximum inhibition rate (%)” value stood at 90.3%.

As for B3, the concentration for half-maximal inhibition (IC50) turned out to be 19.7 nM and the “Maximum inhibition rate (%)” value came to 59.9%.

As for B4, the IC50 amounted to 1.83 nM and the “Maximum inhibition rate (%)” value amounted to 92.7%.

For the molecule B5, the half-maximal inhibitory concentration (IC50) was 3.38 nM and the “Maximum inhibition rate (%)” value amounted to 80.1%.

Consider B6, for which the half-inhibitory concentration (IC50) was found to be 4.52 nM and the “Maximum inhibition rate (%)” value turned out to be 14%.

A further assay concerns the target T2, Human PD-1 expressed on CHO-K1 cells …. In words: FACS, CHO-K1/hPD-1 cells.
For B7, the EC50 stood at 7.31 nM and the “Maximum (MFI)” value came out at 3.16e+06.

As for B8, the EC50 stood at 8.62 nM and the “Maximum (MFI)” value came to 3.3e+06.

As for B9, the EC50 came to 4.02 nM and the “Maximum (MFI)” value was 3.02e+06.

Another assay deals with T3, Human PD-1-His protein (ACROBiosystems, # PD1-H5221) (human, UniProt Q15116 25-167).
T3 construct: Bought reagent, coated on the ELISA plate; also called human PD-1 protein; human PD-1 antigen; not shown: His tag
T3 sequence (Q15116 25-167 limits assumed): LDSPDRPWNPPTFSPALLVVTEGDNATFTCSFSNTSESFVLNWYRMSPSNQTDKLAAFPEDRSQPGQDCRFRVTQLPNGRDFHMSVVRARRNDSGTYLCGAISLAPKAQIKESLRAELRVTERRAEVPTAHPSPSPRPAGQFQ
As to the kind of experiment: ELISA, plate-coated human PD-1-His. The method, then: Human PD-1-His protein (ACROBiosystems, # PD1-H5221) was diluted to 2 μg/mL with PBS, added to a 96-well plate (Corning, cat#9018) at 100 μL/well, and incubated at 4° C. overnight. After the liquid was discarded, the plate was washed 3 times with PBST buffer (pH 7.4, containing 0.05% Tween-20), and 250 μL of 2% BSA blocking buffer was added. The plate was incubated at 37° C. for 1 h. The blocking buffer was discarded, and the plate was washed 3 times with PBST buffer (pH 7.4, containing 0.05% Tween-20). The test antigen-binding protein was 5-fold diluted in sequence at an initial concentration of 100 nM for a total of 8-10 concentration gradients, and added at 100 μL/well. The plate was incubated at 37° C. for 1 h. An isotype antibody was taken as a control. After the plate was washed 3 times with PBST buffer (pH 7.4, containing 0.05% Tween-20), a 4000-fold diluted goat anti-human HRP secondary antibody (Invitrogen, #A18805) was added. The plate was incubated away from light at 37° C. for 1 h. After the plate was washed 3 times with PBST buffer (pH 7.4, containing 0.05% Tween-20), TMB (Biopanda, # TMB-S-003) was added at 100 μL/well. The plate was left away from light at room temperature for about 5 min. The reactions were terminated by adding 50 μL of stop buffer (BBI life sciences, #E661006-0200) to each well, and the absorbance values at 450 nm (OD450) were measured using a microplate reader (PerkinElemer, #Enspire). The half maximal effective concentration (EC₅₀) was calculated from the measurement results.
As to B1, the EC50 amounted to 0.066 nM and the “OD Maximum” value amounted to 3.09.

B2: the EC50 amounted to 0.121 nM and the “OD Maximum” value is 3.32.

Consider B3, for which a half-maximal effect (EC50) was put at 0.113 nM and the “OD Maximum” value turned out to be 3.31.

Regarding B4, it took 0.074 nM to reach a half-maximal effect (EC50) and the “OD Maximum” value was determined as 3.24.

As for B5, the EC50 worked out at 0.102 nM and the “OD Maximum” value came out at 3.31.

Take B6: the EC50 was 0.078 nM and the “OD Maximum” value stood at 3.27.

The target of the next assay is T2, Human PD-1 expressed on CHO-K1 cells …. In words: FACS, CHO-K1/hPD-1 cells. This is another data set of the same source. As for the experimental part: as §1
As for B1, a half-maximal effect (EC50) was put at 4.76 nM and the “MFI Maximum” value was found to be 1.57e+06.

Consider B2, for which it took 10.2 nM to reach a half-maximal effect (EC50) and the “MFI Maximum” value amounted to 2.16e+06.

For the molecule B3, it took 7.91 nM to reach a half-maximal effect (EC50) and the “MFI Maximum” value amounted to 2.29e+06.

Take B4: a half-maximal response (EC50) required 1.94 nM and the “MFI Maximum” value was determined as 2.35e+06.

On to B6, for which the EC50 worked out at 2.1 nM and the “MFI Maximum” value came out at 1.87e+06.

A further assay shares this target. In words: FACS blocking of biotin-labeled human PD-L1 binding to CHO-K1-hPD-1 cells. The method, then: as §2
As to B1, the IC50 amounted to 0.402 nM and the “Maximum inhibition rate (%)” value was found to be 45.6%.

Regarding B2, the IC50 came out at 25.6 nM and the “Maximum inhibition rate (%)” value came out at 76%.

With B3, the IC50 was 12.4 nM and the “Maximum inhibition rate (%)” value is 72%.

B4: the IC50 came to 0.769 nM and the “Maximum inhibition rate (%)” value stood at 66.7%.

Consider B5, for which the IC50 stood at 0.437 nM and the “Maximum inhibition rate (%)” value was 40.2%.

On to B6, for which the IC50 came to 3.4 nM and the “Maximum inhibition rate (%)” value turned out to be 31.2%.
